Patent US20250205362A1, “LIPID NANOPARTICLES” (NATIONAL UNIVERSITY CORPORATION HOKKAIDO UNIVERSITY, priority 2022, published 2025)
Substitutions are numbered along the chain they refer to.

Assays:
[1] = test system: TTR gene; experiment: Measurement of TTR-KO activity (serum TTR protein, ELISA); format: in vivo, mouse; settings: for KO (%) 1st test / KO (%) 2nd test: TTR-KO activity in mice, TTR-RNP-ssODN-loaded LNP CL4H6/DSPC/cholesterol/PEG-DMG 50/10/40/3.5 mol%, sgTTR-G211 (TTR_3) or sgTTR-G269 (TTR_4); for serum TTR (5′ versus 3′ mismatch site): FIG. 8, sgTTR-G211, 7 days after administration
Description: Lipid nanoparticles encapsulating Cas9/sgTTR-RNP (Cas9/sgTTR-RNP-loaded lipid nanoparticles) were intravenously injected to BALB/c mice (female, 4 weeks old) at the indicated doses. One week after intravenous injection, the mice were euthanized, blood was collected, and serum was isolated by centrifugation. The TTR protein concentration in the serum was determined using a commercially available ELISA kit (Prealbumin ELISA Kit (mouse), Aviva Systems Biology) according to the manufacturer's protocol. The serum TTR protein concentration of untreated mice was taken as 100%, and the relative value (%) of the serum TTR protein concentration of mice administered with each lipid nanoparticle was taken as the knockout activity (TTR-KO activity) of the lipid nanoparticle.

[2] = Encapsulation rate of lipid nanoparticles (Ribogreen); format: physicochemical
Description: The encapsulation rate of the lipid nanoparticles was calculated by measuring the amount of encapsulated nucleic acid (the amount of ssODN in the case of RNP-ssODN) using an RNA intercalator Ribogreen (manufactured by Life Technologies).

[3] = Average particle diameter, PdI and zeta potential of lipid nanoparticles (dynamic light scattering); format: physicochemical
Description: The mean particle diameter (number average value), ζ-mean particle diameter, and polydispersity index (PdI) of the lipid nanoparticles in PBS(−) (pH 7.4), as well as the zeta potential in 10 mM HEPES buffer (pH 7.4), were measured using an analyzing device, Zetasizer Nano ZS ZEN3600 (Malvern), which utilizes dynamic light scattering.

[4] = Fluc mRNA-loaded LNP, cationic lipid/DSPC/cholesterol/PEG-DMG 50/10/40/1.5 mol%, Table 5
[5] = Fluc mRNA-loaded LNP, comparison CL4F11-ζ-2, SM, ALC, MC3, Table 21
[6] = TTR-RNP-ssODN-loaded LNP, comparison CL4F11-ζ-2, SM, ALC, MC3, Table 20
[7] = Fluc mRNA-loaded LNP, CL4F11-e-3/neutral lipid (DSPC or DOPE)/cholesterol/PEG-DMG 50/10/40/0.75 mol%
[8] = TTR-RNP-ssODN-loaded LNP, sgTTR-G211, CL4H6/DSPC/cholesterol/PEG-DMG 50/10/40/3.5 mol%, Table 13

With `CCCCCC(CCC)CCCCC(=O)OCCCCCCC(O)(CCCCCCOC(=O)CCCCC(CCC)CCCCC)CCCCN(CCC)CCC` (stereo not drawn) [CL4F11-e-3, 7-(4-(dipropylamino)butyl)-7-hydroxytridecane-1,13-diylbis(6-propylundecanoate)] the knockout ([1]; FIG. 5, TTR-RNP-ssODN-loaded LNP, mouse serum 7 days after administration) was no less than 90%.

Work on “7-(4-(dipropylamino)butyl)-7-hydroxy-13-((3-propylhexanoyl)oxy)tridecyl 3-ethylheptanoic acid [CL4F6-b-3]” yielded an Encapsulation rate [2, 4] of 88.9%, a Number-average particle diameter [3, 4] of 89.3 nm and a PdI [3, 4] of 0.144. For the same molecule, the ζ-average [3, 4] was 141.4 nm and the ζ-potential [3, 4] was −3.44 mV.

`CCCCCCCCCCCOC(=O)CCCCCN(CCO)CCCCCCCC(=O)OC(CCCCCCCC)CCCCCCCC` [SM, SM-102, reference compound] gave an Encapsulation rate [2, 5] of 88.4%, an Encapsulation rate [2, 6] of 78.3% and a Number-average particle diameter [3, 5] of 52.4 nm. The PdI [3, 5] was 0.131, the ζ-average [3, 5] was 76.7 nm and the ζ-potential [3, 5] was 0.24 mV. For the same molecule, the Number-average particle diameter [3, 6] was 64.6 nm, the PdI [3, 6] was 0.137 and the ζ-average [3, 6] was 93.6 nm. For the same molecule, the ζ-potential [3, 6] was 1.43 mV.

In the case of `CCCCC(CC)CCCCCC(=O)OCCCCCCC(O)(CCCCCCOC(=O)CCCCCC(CC)CCCC)CCCCN(CCC)CCC` (stereo not drawn) [CL4F11-ζ-2, 7-(4-(dipropylamino)butyl)-7-hydroxytridecane-1,13-diylbis(7-ethylundecanoate)], the “suppression of TTR gene expression” value ([1]; FIG. 15, 2.0 mg RNP/kg body weight, single administration, 7 days) is reported as 98%.

Work on `CCCCCCCCC(CCCCCC)C(=O)OCCCCCCN(CCCCO)CCCCCCOC(=O)C(CCCCCC)CCCCCCCC` (stereo not drawn) [ALC, ALC-0315, reference compound] yielded an Encapsulation rate [2, 5] of 87.4%, an Encapsulation rate [2, 6] of 73.9% and a Number-average particle diameter [3, 5] of 44.7 nm. It also gave a PdI [3, 5] of 0.085, a ζ-average [3, 5] of 61.9 nm and a ζ-potential [3, 5] of −1.75 mV. It also gave a Number-average particle diameter [3, 6] of 50.7 nm, a PdI [3, 6] of 0.138 and a ζ-average [3, 6] of 78.8 nm. For the same molecule, the ζ-potential [3, 6] was 0.51 mV.

`CCCCCCCCCCCCCCCCCC(=O)OC[C@H](COP(=O)([O-])OCC[N+](C)(C)C)OC(=O)CCCCCCCCCCCCCCCCC` [DSPC, 1,2-distearoyl-sn-glycero-3-phosphocholine] showed an Encapsulation rate [2, 7] of 85.3%, a Number-average particle diameter [3, 7] of 54.7 nm and a PdI [3, 7] of 0.275. The ζ-average [3, 7] was 104.7 nm and the ζ-potential [3, 7] was −2.41 mV.

Work on “7-(4-(dipropylamino)butyl)-7-hydroxytridecane-1,13-diylbis(3-butylheptanoate) [CL4F7-b-4]” yielded an Encapsulation rate [2, 4] of 77.5%, a Number-average particle diameter [3, 4] of 94.4 nm and a PdI [3, 4] of 0.267. For the same molecule, the ζ-average [3, 4] was 237.6 nm and the ζ-potential [3, 4] was −3.06 mV.

B1: ssODN-TTR_4-40%: ssODN pairing with sgTTR-G269, 40% matched; SEQ ID NO 13 (nucleic acid)
DNA: AAAAAAAAAAAAAAAAAAAAAAAAAAAAAAAAAAAAAAAAAAAAAAAAAAAAAAAAAAAAAATGTAGGAGATAAAAAAAAAAAAAAAAAAAAAAAAAAAAAAAAAAAAAAAAAAAAAAAAAAAAAAAAAAAA
With B1 the “KO (%) 1st test” value [1] was 19.9%, the “KO (%) 2nd test” value [1] was 29.6% and the “TTR-KO activity (ranking among ssODNs)” value ([1]; Table 10, CL4H6 LNP, per sgRNA) was “highest TTR-KO activity”.

B2: ssODN-TTR_3-10° C.-3′: ssODN pairing with sgTTR-G211, mismatch on one side; SEQ ID NO 16 (nucleic acid)
DNA: B1 DNA with G64A, G67A, G68A, G70A, T72A, A73G, A74T
In the case of B2, the Encapsulation rate [2, 8] is reported as 62.9%, the “serum TTR (5′ versus 3′ mismatch site)” value ([1]; CL4H6 LNP) is reported as “about the same” and the Number-average particle diameter [3, 8] is reported as 95.3 nm. It also gave a PdI [3, 8] of 0.269, a ζ-average [3, 8] of 172.6 nm and a ζ-potential [3, 8] of 5.20 mV.

B3: ssODN-TTR_3-10° C.-5′: ssODN pairing with sgTTR-G211, mismatch on one side; SEQ ID NO 17 (nucleic acid)
DNA: B1 DNA with A57T, A58G, A59C, G64A, G67A, G68A, G70A, T72A, A75T, A76T
With B3 the Encapsulation rate [2, 8] was 59.0%, the “serum TTR (5′ versus 3′ mismatch site)” value ([1]; CL4H6 LNP) was “about the same” and the Number-average particle diameter [3, 8] was 82.4 nm. The PdI [3, 8] was 0.146, the ζ-average [3, 8] was 141.0 nm and the ζ-potential [3, 8] was 3.98 mV.

B4: ssODN-TTR_3-24° C.-3′: ssODN pairing with sgTTR-G211, mismatch on one side; SEQ ID NO 18 (nucleic acid)
DNA: B1 DNA with G64A, G67A, G68A, A69G, A71C, A73G, A74T
In the case of B4, the Encapsulation rate [2, 8] is reported as 65.6%, the “serum TTR (5′ versus 3′ mismatch site)” value ([1]; CL4H6 LNP) is reported as “about the same” and the Number-average particle diameter [3, 8] is reported as 73.1 nm. The PdI [3, 8] was 0.200, the ζ-average [3, 8] was 140.1 nm and the ζ-potential [3, 8] was 5.73 mV.

B5: ssODN-TTR_3-24° C.-5′: ssODN pairing with sgTTR-G211, mismatch on one side; SEQ ID NO 19 (nucleic acid)
DNA: AAAAAAAAAAAAAAAAAAAAAAAAAAAAAAAAAAAAAAAAAAAAAAAAAAAAAAAATGCTGTAGTAAAAAAAAATTAAAAAAAAAAAAAAAAAAAAAAAAAAAAAAAAAAAAAAAAAAAAAAAAAAAAAAAA
For B5, the Encapsulation rate [2, 8] was 61.5%, the “serum TTR (5′ versus 3′ mismatch site)” value ([1]; CL4H6 LNP) was “about the same” and the Number-average particle diameter [3, 8] was 76.7 nm. For the same molecule, the PdI [3, 8] was 0.147, the ζ-average [3, 8] was 123.5 nm and the ζ-potential [3, 8] was 2.71 mV.

B6: ssODN-TTR_3-30%: ssODN pairing with sgTTR-G211, 30% matched; SEQ ID NO 8 (nucleic acid)
DNA: B1 DNA with T65A, A66C, G68T, A69G, G70A, T72A, A75T, A76T
In the case of B6, the “serum TTR activity / gene knockout activity” value ([1]; FIG. 23, CL4H6 LNP prepared at 4° C., 2.0 mg RNP/kg, 7 days) is reported as “low serum TTR activity, exhibiting sufficient gene knockout activity”, the “KO (%) 1st test” value [1] is reported as 17.4% and the “KO (%) 2nd test” value [1] is reported as 31.6%.

B7: ssODN-TTR_3-100%: ssODN pairing with sgTTR-G211, 100% matched; SEQ ID NO 3 (nucleic acid)
DNA: AAAAAAAAAAAAAAAAAAAAAAAAAAAAAAAAAAAAAAAAAAAAAAAAAAAAAAAATGCTGTAGACGTGGCTGTAAAAAAAAAAAAAAAAAAAAAAAAAAAAAAAAAAAAAAAAAAAAAAAAAAAAAAAAAA
In the case of B7, the “KO (%) 1st test” value [1] is reported as 20.0% and the “KO (%) 2nd test” value [1] is reported as 28.6%.

B8: ssODN-TTR_4-80%: ssODN pairing with sgTTR-G269, 80% matched; SEQ ID NO 10 (nucleic acid)
DNA: B1 DNA with A59G, A60T, A61G, A62C, A71T, T72A, A73T, A74G
For B8, the “KO (%) 2nd test” value [1] was 21.0%.

B9: ssODN-TTR_4-60%: ssODN pairing with sgTTR-G269, 60% matched; SEQ ID NO 11 (nucleic acid)
DNA: B1 DNA with A61G, A62C, A71T, T72A
In the case of B9, the “KO (%) 1st test” value [1] is reported as −0.9% and the “KO (%) 2nd test” value [1] is reported as 30.7%.

B10: ssODN-TTR_4-50%: ssODN pairing with sgTTR-G269, 50% matched; SEQ ID NO 12 (nucleic acid)
DNA: B7 DNA
In the case of B10, the “KO (%) 1st test” value [1] is reported as 15.4% and the “KO (%) 2nd test” value [1] is reported as 33.8%.

B11: ssODN-TTR_4-30%: ssODN pairing with sgTTR-G269, 30% matched; SEQ ID NO 14 (nucleic acid)
DNA: B1 DNA with T63A, G70A
With B11 the “KO (%) 1st test” value [1] was 16.4% and the “KO (%) 2nd test” value [1] was 14.4%.

B12: ssODN-TTR_3-60%: ssODN pairing with sgTTR-G211, 60% matched; SEQ ID NO 5 (nucleic acid)
DNA: B7 DNA with T57A, G58A, C59A, T60A, G73A, T74A, A75T, A76T
With B12 the “KO (%) 1st test” value [1] was 26.4% and the “KO (%) 2nd test” value [1] was 35.4%.
